{"source": "paper PMC11555717", "about": "(Cancer Medicine, 2024)", "key": {"[1]": {"tested_on": "patients with previously treated locally advanced or mUC", "settings": "EV-301; cited from earlier work"}, "[2]": {"tested_on": "patients with locally advanced or mUC previously treated with platinum-based chemotherapy and PD-1/L1 inhibitors", "settings": "cited from earlier work"}, "[3]": {"assay": "EV-203 safety/tolerability: adverse events", "format": "in vivo, human", "text": "Safety assessments included physical and ophthalmologic examinations, clinical laboratory tests, 12‐lead electrocardiography, and ECOG PS.\nPFS was defined as the time from the start of the study treatment to the first documentation of objective tumor progression (i.e., progressive disease per RECIST version 1.1) by IRC or investigator assessment (whichever was specified) or to death due to any cause, whichever came first. OS was defined as the time from the start of study treatment to the date of death due to any cause. […] AEs of special interest were medical concepts of composite terms based on search criteria (standard Medical Dictionary for Regulatory Activities query or sponsor‐specific query/customized Medical Dictionary for Regulatory Activities query). For example, skin reactions included categories of rash and severe cutaneous adverse reactions (which included specific events such as drug eruption, eczema, dermatitis, mouth ulceration, stomatitis, etc.). Data for treatment‐related AEs (TRAEs) were evaluated by the investigator.\nAll patients who received any amount of study drug were included in the primary analyses of efficacy endpoints and safety analyses."}}}
{"substance": "enfortumab vedotin: fully human monoclonal ADC directed to Nectin-4, delivering intracellular monomethyl auristatin E (MMAE) to tumor cells", "values": [{"measurement": "Median OS", "setting": "[1]", "result": 12.88, "unit": "months"}, {"measurement": "Median PFS", "setting": "[1]", "result": 5.6, "unit": "months"}, {"measurement": "Probability of OS at 6 months", "setting": "[1]", "result": "approximately 80%"}, {"measurement": "Median duration of response (DOR)", "setting": "[2]; EV-201", "result": 7.6, "unit": "months"}, {"measurement": "Objective response rate (ORR)", "setting": "[2]; EV-201 cohort 1 (n = 125)", "result": 44, "unit": "%"}, {"measurement": "Treatment-related skin reactions grade 3, patients", "setting": "[3]; 13 patients", "result": 32.5, "unit": "%"}, {"measurement": "Treatment-related peripheral neuropathy, patients", "setting": "[3]; 15 patients, all events grade 1 or 2", "result": 37.5, "unit": "%"}, {"measurement": "Serious TRAEs, patients", "setting": "[3]; 16 of 40 patients", "result": 40.0, "unit": "%"}, {"measurement": "Dose interruption due to TRAEs, patients", "setting": "[3]; 22 of 40 patients", "result": 55.0, "unit": "%"}, {"measurement": "Dose reduction due to TRAEs, patients", "setting": "[3]; 25 of 40 patients", "result": 62.5, "unit": "%"}, {"measurement": "Grade 3 or higher TRAEs, patients", "setting": "[3]; 29 of 40 patients", "result": 72.5, "unit": "%"}, {"measurement": "Treatment-related adverse event: Any", "setting": "[3]; any grade, 1.25 mg/kg, N = 40", "result": "40 (100) n (%)"}, {"measurement": "Treatment-related hyperglycemia, patients", "setting": "[3]; any grade, 22 patients", "result": 55.0, "unit": "%"}, {"measurement": "Treatment-related skin reactions, patients", "setting": "[3]; any grade, 31 patients", "result": 77.5, "unit": "%"}, {"measurement": "Treatment-emergent adverse event: Alopecia", "setting": "[3]; any grade, N = 40", "result": "12 (30.0) n (%)"}, {"measurement": "Treatment-emergent adverse event: Anemia", "setting": "[3]; any grade, N = 40", "result": "28 (70.0) n (%)"}, {"measurement": "Treatment-emergent adverse event: Any", "setting": "[3]; any grade, N = 40", "result": "40 (100) n (%)"}, {"measurement": "Treatment-emergent adverse event: Aspartate aminotransferase increased", "setting": "[3]; any grade, N = 40", "result": "26 (65.0) n (%)"}, {"measurement": "Treatment-emergent adverse event: Constipation", "setting": "[3]; any grade, N = 40", "result": "19 (47.5) n (%)"}, {"measurement": "Treatment-emergent adverse event: Decreased appetite", "setting": "[3]; any grade, N = 40", "result": "26 (65.0) n (%)"}, {"measurement": "Treatment-emergent adverse event: Diarrhea", "setting": "[3]; any grade, N = 40", "result": "19 (47.5) n (%)"}, {"measurement": "Treatment-emergent adverse event: Hyperglycemia", "setting": "[3]; any grade, N = 40", "result": "20 (50.0) n (%)"}, {"measurement": "Treatment-emergent adverse event: Hypokalemia", "setting": "[3]; any grade, N = 40", "result": "15 (37.5) n (%)"}, {"measurement": "Treatment-emergent adverse event: Hyponatremia", "setting": "[3]; any grade, N = 40", "result": "13 (32.5) n (%)"}, {"measurement": "Treatment-emergent adverse event: Hypophosphatemia", "setting": "[3]; any grade, N = 40", "result": "7 (17.5) n (%)"}, {"measurement": "Treatment-emergent adverse event: Nausea", "setting": "[3]; any grade, N = 40", "result": "20 (50.0) n (%)"}, {"measurement": "Treatment-emergent adverse event: Neutrophil count decreased", "setting": "[3]; any grade, N = 40", "result": "19 (47.5) n (%)"}, {"measurement": "Treatment-emergent adverse event: Pneumonia", "setting": "[3]; any grade, N = 40", "result": "5 (12.5) n (%)"}, {"measurement": "Treatment-emergent adverse event: Pruritus", "setting": "[3]; any grade, N = 40", "result": "14 (35.0) n (%)"}, {"measurement": "Treatment-emergent adverse event: Pyrexia", "setting": "[3]; any grade, N = 40", "result": "15 (37.5) n (%)"}, {"measurement": "Treatment-emergent adverse event: Rash", "setting": "[3]; any grade, N = 40", "result": "17 (42.5) n (%)"}, {"measurement": "Treatment-emergent adverse event: Rash maculo-papular", "setting": "[3]; any grade, N = 40", "result": "6 (15.0) n (%)"}, {"measurement": "Treatment-emergent adverse event: Vomiting", "setting": "[3]; any grade, N = 40", "result": "12 (30.0) n (%)"}, {"measurement": "Treatment-emergent adverse event: White blood cell count decreased", "setting": "[3]; any grade, N = 40", "result": "16 (40.0) n (%)"}, {"measurement": "Treatment-related adverse event of special interest: Corneal disorder/blurred vision", "setting": "[3]; any grade, N = 40", "result": "2 (5.0) n (%)"}, {"measurement": "Treatment-related adverse event of special interest: Dry eye", "setting": "[3]; any grade, N = 40", "result": "3 (7.5) n (%)"}, {"measurement": "Treatment-related adverse event of special interest: Hyperglycemia (composite)", "setting": "[3]; any grade, N = 40", "result": "22 (55.0) n (%)"}, {"measurement": "Treatment-related adverse event of special interest: Infusion-related reaction", "setting": "[3]; any grade, N = 40", "result": "2 (5.0) n (%)"}, {"measurement": "Treatment-related adverse event of special interest: Peripheral neuropathy (composite)", "setting": "[3]; any grade, N = 40", "result": "15 (37.5) n (%)"}, {"measurement": "Treatment-related adverse event of special interest: Skin reaction (composite)", "setting": "[3]; any grade, N = 40", "result": "31 (77.5) n (%)"}, {"measurement": "Treatment-related adverse event: Alopecia", "setting": "[3]; any grade, N = 40", "result": "12 (30.0) n (%)"}, {"measurement": "Treatment-related adverse event: Anemia", "setting": "[3]; any grade, N = 40", "result": "27 (67.5) n (%)"}, {"measurement": "Treatment-related adverse event: Aspartate aminotransferase increased", "setting": "[3]; any grade, N = 40", "result": "25 (62.5) n (%)"}, {"measurement": "Treatment-related adverse event: Constipation", "setting": "[3]; any grade, N = 40", "result": "16 (40.0) n (%)"}, {"measurement": "Treatment-related adverse event: Decreased appetite", "setting": "[3]; any grade, N = 40", "result": "25 (62.5) n (%)"}, {"measurement": "Treatment-related adverse event: Diarrhea", "setting": "[3]; any grade, N = 40", "result": "19 (47.5) n (%)"}, {"measurement": "Treatment-related adverse event: Hyperglycemia (preferred term)", "setting": "[3]; any grade, N = 40", "result": "19 (47.5) n (%)"}, {"measurement": "Treatment-related adverse event: Hypokalemia", "setting": "[3]; any grade, N = 40", "result": "14 (35.0) n (%)"}, {"measurement": "Treatment-related adverse event: Hyponatremia", "setting": "[3]; any grade, N = 40", "result": "12 (30.0) n (%)"}, {"measurement": "Treatment-related adverse event: Hypophosphatemia", "setting": "[3]; any grade, N = 40", "result": "7 (17.5) n (%)"}, {"measurement": "Treatment-related adverse event: Nausea", "setting": "[3]; any grade, N = 40", "result": "20 (50.0) n (%)"}, {"measurement": "Treatment-related adverse event: Neutrophil count decreased", "setting": "[3]; any grade, N = 40", "result": "19 (47.5) n (%)"}, {"measurement": "Treatment-related adverse event: Pruritus", "setting": "[3]; any grade, N = 40", "result": "14 (35.0) n (%)"}]}
